Series [1] deals with the molecule itself. Kind of series: crystal structure; ExoG-H140A co-crystallised with a 12-bp dsDNA, an RNA/DNA hybrid duplex or an R2-DNA/DNA chimeric duplex (protein to substrate 1:1.2, 2 mM MgCl2), hanging drop vapor diffusion at 4°C; ExoG dimer in the asymmetric unit, each protomer bound to one duplex.
For series [2], the target named is T1, ExoG-H140A (catalytically dead) (Homo sapiens, UniProt Q9Y2C4 42-368, H140A).
T1 sequence: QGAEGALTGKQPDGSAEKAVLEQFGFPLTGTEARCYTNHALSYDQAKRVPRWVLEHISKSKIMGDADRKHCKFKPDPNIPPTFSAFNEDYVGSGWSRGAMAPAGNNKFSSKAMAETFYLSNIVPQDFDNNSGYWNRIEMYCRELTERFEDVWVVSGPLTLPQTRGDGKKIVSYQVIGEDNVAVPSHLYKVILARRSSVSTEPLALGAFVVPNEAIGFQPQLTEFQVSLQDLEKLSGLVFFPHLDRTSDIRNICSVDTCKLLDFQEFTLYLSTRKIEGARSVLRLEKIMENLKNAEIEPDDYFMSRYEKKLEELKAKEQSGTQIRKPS
In words: crystal structure (3.0 A); Mg2+; one duplex per protomer; FP: 10 nM FAM substrate, 10 mM HEPES pH 7.4, 150 mM NaCl, 2.5 mM MgCl2; temperature not stated. The following applies: protein: recombinant; tags: N-terminal His; chain copies: 2; 12-bp duplex.

The target in series [3] is T1, ExoG-H140A (catalytically dead). Kind of series: crystal structure (2.3 A); Mg2+; one duplex per protomer; FP: 10 nM FAM substrate, 10 mM HEPES pH 7.4, 150 mM NaCl, 2.5 mM MgCl2; temperature not stated. The following applies: protein: recombinant; tags: N-terminal His; chain copies: 2; blunt, self-complementary, 2 copies of strand.
In a further series the target is T2, ExoG-H140A/N176A (Homo sapiens, UniProt Q9Y2C4 42-368, H140A;N176A).
T2 sequence: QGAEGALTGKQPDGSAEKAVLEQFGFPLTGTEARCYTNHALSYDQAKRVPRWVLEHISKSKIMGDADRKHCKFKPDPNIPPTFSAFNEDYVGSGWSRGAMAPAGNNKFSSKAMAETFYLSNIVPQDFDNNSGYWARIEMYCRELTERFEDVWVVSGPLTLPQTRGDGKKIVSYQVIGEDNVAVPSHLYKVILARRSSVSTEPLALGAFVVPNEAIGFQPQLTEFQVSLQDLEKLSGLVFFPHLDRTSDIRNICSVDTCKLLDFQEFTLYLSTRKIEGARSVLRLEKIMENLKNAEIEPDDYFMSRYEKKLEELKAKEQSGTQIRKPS
In words: fluorescence polarization; 2.5 mM Mg2+; FP: 10 nM FAM substrate, 10 mM HEPES pH 7.4, 150 mM NaCl, 2.5 mM MgCl2; temperature not stated. The following applies: protein: recombinant; tags: N-terminal His; chain copies: 2; label: 3'-FAM strand 1; 5'-biotin strand 2; 20-bp duplex, 26-nt 3' overhang on strand 2.

In the next series the target is T3, ExoG-H140A/F168A (Homo sapiens, UniProt Q9Y2C4 42-368, H140A;F168A).
T3 sequence: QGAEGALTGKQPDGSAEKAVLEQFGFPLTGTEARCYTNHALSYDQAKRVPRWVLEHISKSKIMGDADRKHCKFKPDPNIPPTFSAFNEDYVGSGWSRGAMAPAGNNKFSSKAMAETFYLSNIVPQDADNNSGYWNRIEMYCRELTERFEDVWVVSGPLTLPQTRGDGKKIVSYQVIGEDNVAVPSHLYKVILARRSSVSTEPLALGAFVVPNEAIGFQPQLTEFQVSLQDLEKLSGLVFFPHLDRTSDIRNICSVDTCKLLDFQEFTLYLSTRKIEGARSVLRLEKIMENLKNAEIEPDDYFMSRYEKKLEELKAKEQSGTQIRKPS
The series is described as above. The following applies: protein: recombinant; tags: N-terminal His; chain copies: 2; label: 3'-FAM strand 1; 5'-biotin strand 2; 20-bp duplex, 26-nt 3' overhang on strand 2.

Series [4] deals with T1, ExoG-H140A (catalytically dead). Described as above. The following applies: protein: recombinant; tags: N-terminal His; chain copies: 2; label: 3'-FAM strand 1; 5'-biotin strand 2; 20-bp duplex, 26-nt 3' overhang on strand 2.
For series [5] the target is unchanged. Kind of series: crystal structure (2.8 A); Mg2+; one duplex per protomer; FP: 10 nM FAM substrate, 10 mM HEPES pH 7.4, 150 mM NaCl, 2.5 mM MgCl2; temperature not stated. The following applies: protein: recombinant; tags: N-terminal His; chain copies: 2; 12-bp duplex.

This passage reports binding result and Kd results from publication PMC6547421, “A unique exonuclease ExoG cleaves between RNA and DNA in mitochondrial DNA replication” (Nucleic Acids Research, 2019).

B1: human ExoG-H140A (catalytically dead mutant of Exonuclease G, without the N-terminal MLS) (enzyme, UniProt Q9Y2C4 42-368, looked up)
chain: QGAEGALTGKQPDGSAEKAVLEQFGFPLTGTEARCYTNHALSYDQAKRVPRWVLEHISKSKIMGDADRKHCKFKPDPNIPPTFSAFNEDYVGSGWSRGAMAPAGNNKFSSKAMAETFYLSNIVPQDFDNNSGYWNRIEMYCRELTERFEDVWVVSGPLTLPQTRGDGKKIVSYQVIGEDNVAVPSHLYKVILARRSSVSTEPLALGAFVVPNEAIGFQPQLTEFQVSLQDLEKLSGLVFFPHLDRTSDIRNICSVDTCKLLDFQEFTLYLSTRKIEGARSVLRLEKIMENLKNAEIEPDDYFMSRYEKKLEELKAKEQSGTQIRKPS
notes: source: E. coli Rosetta 2 (DE3) pLysS, purified (HisTrap HP, Superdex 200 gel filtration)
As for B1, the binding result in series [1] is given as “binds”.

B2: 12-nt R2-DNA/DNA chimeric duplex (crystal) (mixed)
DNA 1: CGGGATGTCACG
DNA 2: CGTGACATCCCG
modifications: two 5'-end ribonucleotides and 5'-phosphate on scissile strand; complement DNA 5'-OH
In the case of B2, the binding result in series [2] was “binds”.

B3: 12-bp palindromic DNA (crystal) (dsDNA)
DNA 1: CGGGATATCCCG
DNA 2: CGGGATATCCCG
modifications: 5'-OH and 3'-OH
On to B3, for which the binding result in series [3] is reported as “binds”.

B4: R2-DNA/DNA (mixed)
DNA 1: GCTTAACGCTGACTCGCTAC
DNA 2: GTAGCGAGTCAGCGTTAAGCACTATCATAGCCATCTGCCATTACTG
modifications: strand 1 nt 1-2 (GC) are ribonucleotides, rest DNA; 5'-phosphate on strand 1
As for B4, the Kd (in general, the concentration at which binding is half-saturated) is 0.93 ± 0.063 µM in the series with ExoG-H140A/N176A, 3.15 ± 0.259 µM in the series with ExoG-H140A/F168A and 1.03 ± 0.086 µM in series [4].

B5: DNA/DNA (dsDNA)
DNA 1: GCTTAACGCTGACTCGCTAC
DNA 2: GTAGCGAGTCAGCGTTAAGCACTATCATAGCCATCTGCCATTACTG
modifications: 5'-phosphate on strand 1
With B5, the dissociation constant (Kd) with ExoG-H140A/N176A was 0.95 ± 0.063 µM; with ExoG-H140A/F168A, 3.93 ± 0.188 µM; in series [4], 1.32 ± 0.079 µM.

B6: RNA/DNA (DNA:RNA)
RNA: GCUUAACGCUGACUCGCUAC
DNA: GTAGCGAGTCAGCGTTAAGCACTATCATAGCCATCTGCCATTACTG
modifications: strand 1 RNA with 5'-phosphate; strand 2 DNA
Regarding B6, the dissociation constant (Kd) with ExoG-H140A/N176A is 0.12 ± 0.008 µM; with ExoG-H140A/F168A, 0.25 ± 0.014 µM; in series [4], 0.19 ± 0.01 µM.

B7: 12-bp RNA/DNA hybrid (crystal) (DNA:RNA)
RNA: CGGGAUGUCACG
DNA: CGTGACATCCCG
modifications: 5'-phosphate on RNA strand; DNA strand 5'-OH
Consider B7, for which the binding result in series [5] is reported as “binds”.
